For this assay, the target named is T1, human amylin receptor 3 (hAMYR3), hCTR2 co-expressed with human receptor activity modifying protein 3 (hRAMP3) (human, UniProt P30988 25-474; O60896 24-148).
T1 sequence (looked up) 1: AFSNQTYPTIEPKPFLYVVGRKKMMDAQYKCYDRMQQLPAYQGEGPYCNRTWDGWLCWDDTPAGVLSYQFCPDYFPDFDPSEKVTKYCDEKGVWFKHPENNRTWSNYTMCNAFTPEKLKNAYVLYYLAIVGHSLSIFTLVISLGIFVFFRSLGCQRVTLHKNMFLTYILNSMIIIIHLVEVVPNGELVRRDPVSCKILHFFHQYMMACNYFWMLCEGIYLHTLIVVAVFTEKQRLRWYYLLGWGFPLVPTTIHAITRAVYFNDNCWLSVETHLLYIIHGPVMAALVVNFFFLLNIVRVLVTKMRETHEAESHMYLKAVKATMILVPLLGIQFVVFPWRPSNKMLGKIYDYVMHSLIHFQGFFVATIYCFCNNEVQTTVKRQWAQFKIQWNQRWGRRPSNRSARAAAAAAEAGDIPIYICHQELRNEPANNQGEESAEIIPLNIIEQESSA
T1 sequence (looked up) 2: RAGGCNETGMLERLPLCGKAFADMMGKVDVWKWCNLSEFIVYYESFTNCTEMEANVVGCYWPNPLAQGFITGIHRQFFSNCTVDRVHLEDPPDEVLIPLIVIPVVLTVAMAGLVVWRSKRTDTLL
The experiment in a line: cell-based or functional assay.

Six molecules from US20160272693A1 (ZEALAND PHARMA A S, published 2016) can be followed below.

*1 amine or outer side, *2 acyl side, *3 side chain or, on linkers, in order; H or OH if unused. Bridges are numbered along the chain shown (N, C = ends). [ ]: non-standard residue; d: D form. The star is where a group is joined. C20 diacid = O=C(O)CCCCCCCCCCCCCCCCCCC(=O)*; γGlu = O=C(O)[C@H](CCC(=O)[*:2])N[*:1]; Hyp = O=C(O)[C@@H]1C[C@@H](O)CN1; NMeI = CC[C@H](C)[C@H](NC)C(=O)O; Sar = CNCC(=O)O

B1: [19CD]-isoGlu-R-C( )-NTAT-C( )-ATQRLAHFLQRSSF-Gly(Me)-A-Ile(Me)-LSSTEVGSNTP-NH2 (Compd. 61) (peptide)
peptide: {C20 diacid}-[γGlu]RCNTATCATQRLAHFLQRSSF[Sar]A[NMeI]LSSTEVGSNTP-NH2
modifications: disulfide 3-8
SMILES: CC[C@H](C)[C@@H](C(=O)N[C@@H](CC(C)C)C(=O)N[C@@H](CO)C(=O)N[C@@H](CO)C(=O)N[C@H](C(=O)N[C@@H](CCC(=O)O)C(=O)N[C@H](C(=O)NCC(=O)N[C@@H](CO)C(=O)N[C@@H](CC(N)=O)C(=O)N[C@H](C(=O)N1CCC[C@H]1C(N)=O)[C@@H](C)O)C(C)C)[C@@H](C)O)N(C)C(=O)[C@H](C)NC(=O)CN(C)C(=O)[C@H](Cc1ccccc1)NC(=O)[C@H](CO)NC(=O)[C@H](CO)NC(=O)[C@H](CCCNC(=N)N)NC(=O)[C@H](CCC(N)=O)NC(=O)[C@H](CC(C)C)NC(=O)[C@H](Cc1ccccc1)NC(=O)[C@H](Cc1c[nH]cn1)NC(=O)[C@H](C)NC(=O)[C@H](CC(C)C)NC(=O)[C@H](CCCNC(=N)N)NC(=O)[C@H](CCC(N)=O)NC(=O)[C@@H](NC(=O)[C@H](C)NC(=O)[C@@H]1CSSC[C@H](NC(=O)[C@H](CCCNC(=N)N)NC(=O)CC[C@H](NC(=O)CCCCCCCCCCCCCCCCCCC(=O)O)C(=O)O)C(=O)N[C@@H](CC(N)=O)C(=O)N[C@@H]([C@@H](C)O)C(=O)N[C@@H](C)C(=O)N[C@@H]([C@@H](C)O)C(=O)N1)[C@@H](C)O
B1: the “hAMYR3 EC50 (nM); cAMP induction” value was 0.17 nM.

B2: [19CD]-isoGlu-R-C( )-NTAT-C( )-ATERLAHFLQRSSF-Gly(Me)-A-Ile(Me)-LSSTEVGSDT-Hyp-NH2 (Compd. 60) (peptide)
peptide: {C20 diacid-γGlu}-RCNTATCATERLAHFLQRSSF[Sar]A[NMeI]LSSTEVGSDT[Hyp]-NH2
modifications: disulfide 2-7
SMILES: CC[C@H](C)[C@@H](C(=O)N[C@@H](CC(C)C)C(=O)N[C@@H](CO)C(=O)N[C@@H](CO)C(=O)N[C@H](C(=O)N[C@@H](CCC(=O)O)C(=O)N[C@H](C(=O)NCC(=O)N[C@@H](CO)C(=O)N[C@@H](CC(=O)O)C(=O)N[C@H](C(=O)N1C[C@H](O)C[C@H]1C(N)=O)[C@@H](C)O)C(C)C)[C@@H](C)O)N(C)C(=O)[C@H](C)NC(=O)CN(C)C(=O)[C@H](Cc1ccccc1)NC(=O)[C@H](CO)NC(=O)[C@H](CO)NC(=O)[C@H](CCCNC(=N)N)NC(=O)[C@H](CCC(N)=O)NC(=O)[C@H](CC(C)C)NC(=O)[C@H](Cc1ccccc1)NC(=O)[C@H](Cc1c[nH]cn1)NC(=O)[C@H](C)NC(=O)[C@H](CC(C)C)NC(=O)[C@H](CCCNC(=N)N)NC(=O)[C@H](CCC(=O)O)NC(=O)[C@@H](NC(=O)[C@H](C)NC(=O)[C@@H]1CSSC[C@H](NC(=O)[C@H](CCCNC(=N)N)NC(=O)CC[C@H](NC(=O)CCCCCCCCCCCCCCCCCCC(=O)O)C(=O)O)C(=O)N[C@@H](CC(N)=O)C(=O)N[C@@H]([C@@H](C)O)C(=O)N[C@@H](C)C(=O)N[C@@H]([C@@H](C)O)C(=O)N1)[C@@H](C)O
B2: the “hAMYR3 EC50 (nM); cAMP induction” value is 0.09 nM.

B3: [19CD]-isoGlu-R-C( )-NTAT-C( )-ATERLAHFLQRSSF-Gly(Me)-A-Ile(Me)-LSSTEVGSNTP-NH2 (Compd. 62) (peptide)
peptide: {C20 diacid-γGlu}-RCNTATCATERLAHFLQRSSF[Sar]A[NMeI]LSSTEVGSNTP-NH2
modifications: disulfide 2-7
SMILES: CC[C@H](C)[C@@H](C(=O)N[C@@H](CC(C)C)C(=O)N[C@@H](CO)C(=O)N[C@@H](CO)C(=O)N[C@H](C(=O)N[C@@H](CCC(=O)O)C(=O)N[C@H](C(=O)NCC(=O)N[C@@H](CO)C(=O)N[C@@H](CC(N)=O)C(=O)N[C@H](C(=O)N1CCC[C@H]1C(N)=O)[C@@H](C)O)C(C)C)[C@@H](C)O)N(C)C(=O)[C@H](C)NC(=O)CN(C)C(=O)[C@H](Cc1ccccc1)NC(=O)[C@H](CO)NC(=O)[C@H](CO)NC(=O)[C@H](CCCNC(=N)N)NC(=O)[C@H](CCC(N)=O)NC(=O)[C@H](CC(C)C)NC(=O)[C@H](Cc1ccccc1)NC(=O)[C@H](Cc1c[nH]cn1)NC(=O)[C@H](C)NC(=O)[C@H](CC(C)C)NC(=O)[C@H](CCCNC(=N)N)NC(=O)[C@H](CCC(=O)O)NC(=O)[C@@H](NC(=O)[C@H](C)NC(=O)[C@@H]1CSSC[C@H](NC(=O)[C@H](CCCNC(=N)N)NC(=O)CC[C@H](NC(=O)CCCCCCCCCCCCCCCCCCC(=O)O)C(=O)O)C(=O)N[C@@H](CC(N)=O)C(=O)N[C@@H]([C@@H](C)O)C(=O)N[C@@H](C)C(=O)N[C@@H]([C@@H](C)O)C(=O)N1)[C@@H](C)O
For B3, the “hAMYR3 EC50 (nM); cAMP induction” value is 0.22 nM.

B4: [19CD]-isoGlu-R-C( )-PTAT-C( )-ATQRLAHFLQRSSF-Gly(Me)-A-Ile(Me)-LSSTEVGSNT-Hyp-NH2 (Compd. 64) (peptide)
peptide: {C20 diacid}-[γGlu]RCPTATCATQRLAHFLQRSSF[Sar]A[NMeI]LSSTEVGSNT[Hyp]-NH2
modifications: disulfide 3-8
SMILES: CC[C@H](C)[C@@H](C(=O)N[C@@H](CC(C)C)C(=O)N[C@@H](CO)C(=O)N[C@@H](CO)C(=O)N[C@H](C(=O)N[C@@H](CCC(=O)O)C(=O)N[C@H](C(=O)NCC(=O)N[C@@H](CO)C(=O)N[C@@H](CC(N)=O)C(=O)N[C@H](C(=O)N1C[C@H](O)C[C@H]1C(N)=O)[C@@H](C)O)C(C)C)[C@@H](C)O)N(C)C(=O)[C@H](C)NC(=O)CN(C)C(=O)[C@H](Cc1ccccc1)NC(=O)[C@H](CO)NC(=O)[C@H](CO)NC(=O)[C@H](CCCNC(=N)N)NC(=O)[C@H](CCC(N)=O)NC(=O)[C@H](CC(C)C)NC(=O)[C@H](Cc1ccccc1)NC(=O)[C@H](Cc1c[nH]cn1)NC(=O)[C@H](C)NC(=O)[C@H](CC(C)C)NC(=O)[C@H](CCCNC(=N)N)NC(=O)[C@H](CCC(N)=O)NC(=O)[C@@H](NC(=O)[C@H](C)NC(=O)[C@@H]1CSSC[C@H](NC(=O)[C@H](CCCNC(=N)N)NC(=O)CC[C@H](NC(=O)CCCCCCCCCCCCCCCCCCC(=O)O)C(=O)O)C(=O)N2CCC[C@H]2C(=O)N[C@@H]([C@@H](C)O)C(=O)N[C@@H](C)C(=O)N[C@@H]([C@@H](C)O)C(=O)N1)[C@@H](C)O
As for B4, the “hAMYR3 EC50 (nM); cAMP induction” value was 0.15 nM.

B5: [19CD]-isoGlu-R-C( )-GTAT-C( )-ATERLAHFLNRSSF-Gly(Me)-A-Ile(Me)-LSSTEVGSNT-Hyp-NH2 (Compd. 6) (peptide)
peptide: {C20 diacid}-[γGlu]RCGTATCATERLAHFLNRSSF[Sar]A[NMeI]LSSTEVGSNT[Hyp]-NH2
modifications: disulfide 3-8
SMILES: CC[C@H](C)[C@@H](C(=O)N[C@@H](CC(C)C)C(=O)N[C@@H](CO)C(=O)N[C@@H](CO)C(=O)N[C@H](C(=O)N[C@@H](CCC(=O)O)C(=O)N[C@H](C(=O)NCC(=O)N[C@@H](CO)C(=O)N[C@@H](CC(N)=O)C(=O)N[C@H](C(=O)N1C[C@H](O)C[C@H]1C(N)=O)[C@@H](C)O)C(C)C)[C@@H](C)O)N(C)C(=O)[C@H](C)NC(=O)CN(C)C(=O)[C@H](Cc1ccccc1)NC(=O)[C@H](CO)NC(=O)[C@H](CO)NC(=O)[C@H](CCCNC(=N)N)NC(=O)[C@H](CC(N)=O)NC(=O)[C@H](CC(C)C)NC(=O)[C@H](Cc1ccccc1)NC(=O)[C@H](Cc1c[nH]cn1)NC(=O)[C@H](C)NC(=O)[C@H](CC(C)C)NC(=O)[C@H](CCCNC(=N)N)NC(=O)[C@H](CCC(=O)O)NC(=O)[C@@H](NC(=O)[C@H](C)NC(=O)[C@@H]1CSSC[C@H](NC(=O)[C@H](CCCNC(=N)N)NC(=O)CC[C@H](NC(=O)CCCCCCCCCCCCCCCCCCC(=O)O)C(=O)O)C(=O)NCC(=O)N[C@@H]([C@@H](C)O)C(=O)N[C@@H](C)C(=O)N[C@@H]([C@@H](C)O)C(=O)N1)[C@@H](C)O
On to B5, for which the “hAMYR3 EC50 (nM); cAMP induction” value came to 0.22 nM.

B6: [19CD]-isoGlu-R-C( )-PTAT-C( )-ATERLAHFLQRSSF-Gly(Me)-A-Ile(Me)-LSSTEVGSNT-Hyp-NH2 (Compd. 63) (peptide)
peptide: {C20 diacid}-[γGlu]RCPTATCATERLAHFLQRSSF[Sar]A[NMeI]LSSTEVGSNT[Hyp]-NH2
modifications: disulfide 3-8
SMILES: CC[C@H](C)[C@@H](C(=O)N[C@@H](CC(C)C)C(=O)N[C@@H](CO)C(=O)N[C@@H](CO)C(=O)N[C@H](C(=O)N[C@@H](CCC(=O)O)C(=O)N[C@H](C(=O)NCC(=O)N[C@@H](CO)C(=O)N[C@@H](CC(N)=O)C(=O)N[C@H](C(=O)N1C[C@H](O)C[C@H]1C(N)=O)[C@@H](C)O)C(C)C)[C@@H](C)O)N(C)C(=O)[C@H](C)NC(=O)CN(C)C(=O)[C@H](Cc1ccccc1)NC(=O)[C@H](CO)NC(=O)[C@H](CO)NC(=O)[C@H](CCCNC(=N)N)NC(=O)[C@H](CCC(N)=O)NC(=O)[C@H](CC(C)C)NC(=O)[C@H](Cc1ccccc1)NC(=O)[C@H](Cc1c[nH]cn1)NC(=O)[C@H](C)NC(=O)[C@H](CC(C)C)NC(=O)[C@H](CCCNC(=N)N)NC(=O)[C@H](CCC(=O)O)NC(=O)[C@@H](NC(=O)[C@H](C)NC(=O)[C@@H]1CSSC[C@H](NC(=O)[C@H](CCCNC(=N)N)NC(=O)CC[C@H](NC(=O)CCCCCCCCCCCCCCCCCCC(=O)O)C(=O)O)C(=O)N2CCC[C@H]2C(=O)N[C@@H]([C@@H](C)O)C(=O)N[C@@H](C)C(=O)N[C@@H]([C@@H](C)O)C(=O)N1)[C@@H](C)O
Consider B6, for which the “hAMYR3 EC50 (nM); cAMP induction” value was determined as 0.37 nM.
